Laboratory results as given in the nanobody polyreactivity screen of Harvey et al. (2022).

Test: yeast display, Sf9 membrane polyspecificity reagent, FACS + sequencing; frameworks hold sequencing errors
In short: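 Nanobodies came from a synthetic yeast display library in Saccharomyces cerevisiae BJ5465, induced with galactose for 36–48 hours and stained for 1 hour at 4 °C with 10% biotinylated, detergent-solubilized Sf9 membrane reagent. Cells were enriched on streptavidin microbeads and then FACS-sorted, with low and high (top ~1%) gates set on anti-HA fluorescence for expression and streptavidin fluorescence for reagent binding. Each polyreactivity label reflects the gate a clone came from. Genes were amplified by colony PCR, sequenced by MiSeq 2 × 250 and filtered by CDR length.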

Row | Sequence | polyreactivity (PSR sort gate)
1 | QVQLVESGGGLVQAGGSLRLSCAASGRIFAWYAMGWYRQSPGKESELVAAISDSGGSTYYADSVKGRFTISRDNAKNTVYLQMNSLKPEDTAVYYCAADQVVYSAYWSDHYDYWGQGTQVTVSS | low polyreactivity
2 | QVQLVESGGGLVQAGGSLRLSCAASGFTFDSNAMGWYRQAPGKERELGAAISKRGGSTYYADSVKGRFTISRDNAKNTVYLQMNSLKPEDTAVYYCAADNYNSGGTRHMYYWGQGTQVTVSS | high polyreactivity
3 | QVHLVESGGGLVQAGGSLRLSCAASGSIFGTYAMGWYRQPPGKESELVAAITSSGGSTYYADSVKGRFTISRDNAKNTVYLQMNSLKPEDTAVYYCAAYLRIRVGVPVRTYYYWGQGTQVTVSS | high polyreactivity
4 | QVQLVESGGGLVQAGGSLRLSCAASGLIFGRNARGWYRQAPGKERELVAVISKRGGSTYYADSVKGRFTISRDNAKNTVYLQMNSLKPADTAVYYCAADYGSTGNYWGQGTQVTVSS | high polyreactivity
5 | QVQLVESGGRLVQAGGSLRLSCAASGFSFGGNVIGWYRQAPGKDREFVAAITDGDGSTYYADSVKGRFTISRDNAKNTVYLQMNSLKPEDTSVYYCAGDVYYADVYPVEYWGQGTQVTVSS | high polyreactivity
6 | QVQLQESGGGMVLAGGSLRLSCSASGTISVYGTMGWYRQAPGKEREFVATIDPGTHTNYADSVKDRFTISRDNAKNTVYLKMNSLKPEVTAVYSCAVEAGSDWPYRYWGQGTQVTVSS | low polyreactivity
7 | QVEHVESGGGLVQAGGILRLSCAASGSTFYGYAMGWYRQARGKERELVAAITSSGGSTYYADSVKGRFTISRDNAKNSVYLQMNSLKPEDTADYYCNAKRAPWGTLYNYWGQGSQVTVSS | high polyreactivity
8 | QVQLVESVGGLVQAGGSLRFTCAASGGTFRVNAMGWYRQAPGKEREFVAAISGSGSSTYYADSVKGRFTISRDNAKNTVYLQMNSLKPEDTAVYYCAARSGVGGDNDYWGQGTQVTVSS | low polyreactivity
9 | QVQLVESGGGLVQAGGSLRLSCAASGFIFDTYAMGWYRQAPGKERELVAAISYRGGSTYYADSVKGRFTISRDNAKNTVYLQMNSLKPEDTAVYYCNAYWRYSYFGRDYWGQGTQVTVSS | low polyreactivity
10 | QVQLVESGGGLVQAGGSLRLSCAASGFTFEIYTMGWYRQAPGKERELVAAISTGGNTKYADSVKGRFTISRDNAKNTVYLQMNSLKPEDTAVYYCAKGRKPGYYYWGQGTQVTVSS | high polyreactivity
11 | QVQLVESGGGLVQAGGSLRLSCAASGRIFDINAMGWYRQAPGKEWELVAAISRGGSTYYADSVKGRFTISLDNAKNTVYLNMNSLKPEDTAVYYCNIYRYRGSTVFDGYDYWGHGTQVTVSS | high polyreactivity
12 | QVQLVESGGGLVQAGGSLRVICAASGSIGRYAMGWSRQAPGKERELVAAISSSGGSTYYADSVKGRFTISRDNAKNTVYLQMNSLKPEDTAGYYCAACPGAQEDDYWGPGTQVTVSS | high polyreactivity
13 | QVQLVESGGGLVQAGGSLRLSCAASGITFPGNAMGWYIQAPGKERELVAVISSGTSTNYADSVKGRFTISRDNAMNTVYLQMNSLKPEDTAVYYCATSLYYYPYYYWGQGTQVTVSS | low polyreactivity
14 | QVQLVESGGGLVQAGGSLRLSCAASGSIFLVYAMGWYRQAPGKERELVAAISQRVGRTYYADSVKGRFTISRDNAKNTVYLQMNSLKPEDTAVYYCNARVYDPTRGFNYWGQGTQVTVSS | high polyreactivity
15 | QVQLVESGGGLVQAGGSLRLSCAASGITLSWYAMGWYRQAPGKERELVAGISGRGGRTYYADSVKGRFTLSRDNAKNTVYLQMNSLKPEDTAVYYCAADSPGYRSYDYWGQGTQVTVSS | high polyreactivity
16 | QVQLVESGVGLVQAGGSLRLSCAASGLILANYAMGWYRQAPGKERELVAAISSSGGSTYYADSVKGRFTISRDNAKNTVYLQMNSLKPEDTAVYYCAAYPLYRRRWTGDYWGQGTQVTVSS | high polyreactivity
17 | QVQLVESGGGLVQAGGSLRLSCAPSGFIFRYYAMGWYRHAPGKERELVAAISRTSGRTYYADSVKGRFTISRDNAKNTVYLQMNSLKPEYTAVDYCAAVVRNPGTYEYWGQGTQVTVSS | high polyreactivity
18 | QVQLVESGGGLVQAGGSLRLSCAASGSIFDGYAMGWYSQAPGKEREFVASIRFSTGRTYYADSVKGRFTISRDNAKNTVYFQMNSLKPEDTAVYYCNAPQGFVWRYSSWGPYDYWGQGTQVTVSS | high polyreactivity
19 | QVQLVESRRGLVQAGGSLRLSCAASGFTFYIYAMGWYRQAPGKERELVAAIIFRGGSTYYADSVKGRFTISRDNAKNTVYLQMNSLKREDTAVYYCAAVPRTYSGYYYWGHGTQVTVSS | high polyreactivity
20 | QVQLVESGGGLVQAGGSLRLSCAASGSIFHLYAMGWYRQAPGKEREFVAAISSSGGRTYYADSVKGRFTISRDNAKNTVYLQMNSLKPEDTAVYYCATAEQYGTKLRQVSYQYDYWGHGTQVTVSS | low polyreactivity
21 | QVQLVESGGVLVQAGGRLRLSCAASGLTFYLYAMGWYRQAPGKQREFVAAISRSGTSTYYADSVKGRFTISRDYAKNTVNLQKNSLKPDDTAVYYCAALNYHKFAHKYDYWGQGTPVTVSS | low polyreactivity
22 | QVQLVESGGGLVQAGGSLRVSCAASGSTFYIYAMGWSRQAPGKERELVARISGSGGSTYYADSVKGRFTISRDYAKNTVYLLMNSLKPEDTAVYYCAADDIYKYYQYYAFPYSRYDYWGQGTQLTVSS | low polyreactivity

Row | Sequence | polyreactivity (PSR sort gate)
23 | QVQLVESGGGLVQAGGSLRLSCAASGFIFGAYAMGWYRQAPGKERELVAAITKSGGRTYYADSVKGRFTISRDNAKNTVYLQMNSLKPEDTAVYYCAAVTRYPGEYDYWGQGTQVTVSS | high polyreactivity
24 | QVQLVESGGGLVQAGGSLRLSCAASGSIYITYAMGWYRQAPGKERELVAAIRDSGDRTYYADSVKGRFTISRDNAKNTVYLQMNSLKPEDTAVYYCNARWQEPLKYDYWGQGTQVTVSS | low polyreactivity
25 | QVQLVESGGGLVQAGGSLRLSCAASGSTFDTYTRGWYRQAPGKERELVAAITTSGGSTYYADSVKGRFTISRDNAKNTVYLQMNSLKPEDTAVYYCAADFFPGGYPEMDYWGQGTQVTVSS | high polyreactivity
26 | QVQLVESGGCLVQAGGSLRLSCAASGSTFTLYAMGWYRPAPGKERELVAAIRRGGSTNYADSVKGRFTISRDNAKNTDYLQMNSLKPEDTAVYYCAADSYTSRSRYSGSGGYDYGGQGTQVTVSS | low polyreactivity
27 | PVQIVESGGVLDQAGGSLRLSCAASGSIFTRNTMGWYRQAPRKERELVAAISQRGGSTYYADSVKGRFTISRDNAKNTVYLQMNSLIPEDTAVYFCAADFSFGYYWYGYWGQGTQVTVSS | high polyreactivity
28 | QVQLVESGGGLVQAGGSLRLSCAASGSIFYQNAMGWYRHAPGKERELVAAITSDGSTYYADSVKGRFTISRDNAKKTVYLQMNSLKPEDTAVYYCAAEDYGHRYDYWGQGTQVTVSS | low polyreactivity
29 | QVQLVESGGGLVQAGGSLRLSSAASGIIFTFNAMRWYRQAPGKEMELVAGISLGGSSTNYADSVKGRFTISRDNAKNTVYLQMNSLKPEDTAVYYCAAYVDIVGDYWVVGYYYWGQGTQVTVSS | low polyreactivity
30 | QVQLVESGGGLVQAGGSLRLSCAASGRTFKINAMGWYRQAPGKERELVATITGRGASTYYADSVKGRFTISRDNAKNTVYLQMNSLKPEDTAVYYCAARTEVPTRYNYWGQGTQVTVSS | high polyreactivity
31 | HVQLVESGGGLVQAGGSLRLSCAASGSTFNINAMGWYRQAPGKETEFVAAINYRGGSTYYADSVKGRFTISRDNSKNTVYLQMNSLKPEDTAVYYCAAASWKVRKKFDYWGQGTQVTVSS | low polyreactivity
32 | QVQLVESGGGLVQAGGSLRLSCAASGRTFLKYTLGWYRQAPGKERELVAAISGSGGSTYYADSVKGRFTISRDNAKNTVYLQMNSLKPEDTAVYYCAAAIVRHYQTGYYWGQGTQVTVSS | high polyreactivity
33 | QVQLVESGGGLVQAGGSLRLSCAASGRIFRYYVLGWYRQAPGKERELVATINWSGSRTYYADSVKGRFTISRDNAKNTVYLQMNSLKPEDTAVYYCAARTFNTYPRYYYWGQGTQVTVSS | high polyreactivity
34 | QVHLVESGGGLVQAGGSLRLSCAASGFIFEPYAMGCYRQAPWKEWELVAAISSGGSTYADSVKGRFTISRDNAKNTVYLQMISLKPEDTAVYYCAADSYYSVWGFYFWGQGTQVTVSS | low polyreactivity
35 | QVQLVESGGGLVQAGGSLRLSCADSGLIFGRNAMGWYRQAPGKERELVAAITSGGSTYYADSVKGRFTISRDNAKNTVYLQRNSLKPEDTAVYYCAADVVDLYLLDYWGQGTQVTVSS | low polyreactivity
36 | QVQLVESGGGLVQAGGSLRLSCAASGFTFSHYAMGWYRQAPGKERELVAAITASGGNTYYADSVKGRFTISRDNAKNTVYLQMNSLKPEDTAVYYCNAVSLKFTRKFDYWGQGTQVTVSS | high polyreactivity
37 | QVQLVESGGRLVQAGGILRLSCAASGRIFSANAMGWYRQAPGKERELVAAITSSGGSTYYADSVKGRFTISRDNAKNTVYLQMNSLKPEDTAVYYCAAESAAYGGGTSDAGYESDYLGQGTQVTVSS | low polyreactivity
38 | QVQLVESGGGLVQAGGSLRLSCAASGTFSFYAMGWYRQAPGKERELVATIRSGGRTYYADSVKGRFTISRDNAKNTVYFQINSLKPEDTAVYYCAKTGFLGLRQYGYWGQGTQVTVSS | high polyreactivity
39 | QVQLVESGGGLVQAGGSLRLSCAASGSIFSSYAMGWYRQAPGKERELVAAISQSGGDTYYADSVKGRFTISRDIAKNTVYLQMNSLKPEDTAVYYCAACVWYYPMDYWGQGTQGTVSS | low polyreactivity
40 | QVQLVESGGGLVQAGGSLRLSCAASGSTFNAYAMGWNRQAPGKERELVAVISSSGGRTYYADSVKGRFTISRDNAKNTVYLQMNSLKPEDTAVYYCNADVKYRYNHWGQGTQVTVSS | high polyreactivity
41 | QVQLVESGGGLVPAGGSLRLSCAASGRIFYYYAMGWYRQAPGKERELVAAISSSGGSTYYADSVKGRFTISRDNAKKTVYLQMNSLKPEDTAVYYCAKRYALSGYYRLYDYWGQGTQVTVSS | high polyreactivity
42 | QVQLVESGGGLVQAGGSLRLSCAASGRTFDHNAMGWYRQAPGKERELVAAITWSGGITDYADSVKRPFTISRDNAKNTVYLQMNSLKPEDTAVCGQGTQVTVSS | low polyreactivity
43 | QVQLVESGGGLVQAGGSLRLSCAASGSIFNKYAMGWYRQAPGKERELVAAISVSGTRTYYADSVKGRFTISRDTAKNTVYLQMNSLKPEDTAVYYCATKFFRTAYEYWGQGTQVTVSS | high polyreactivity
